This note sets out measurements from paper PMC4337726, “A molecular basis for the differential roles of Bub1 and BubR1 in the spindle assembly checkpoint” (eLife, 2015).

The target in one assay is Apc7. As to the kind of experiment: co-immunoprecipitation (anti-GFP IP), quantified Western blot. The conditions noted are these: mitotic Flp-In T-REx cell lines; mean of two independent experiments; parent: 1.0; read off a plot. On the technique in general: A western blot detects proteins with antibodies after separation by electrophoresis.
The target of the next assay is Bub3 (UniProt O43684). Described as above. The settings on record: mitotic Flp-In T-REx cell lines; mean of two independent experiments; parent: 1.0; read off a plot.
Another assay addresses Cdc20 (UniProt Q12834). The description is as above. The conditions noted are these: mitotic Flp-In T-REx cell lines; mean of two independent experiments; parent: 1.0; read off a plot.
The target in the next assay is Cdc27. Described as above. The settings on record: mitotic Flp-In T-REx cell lines; mean of two independent experiments; parent: 1.0; read off a plot.
The next assay deals with Mad2 (UniProt Q13257). The assay is described as above. The settings on record: mitotic Flp-In T-REx cell lines; mean of two independent experiments; parent: 1.0; read off a plot.
The target of assay [1] is anaphase promoting complex/cyclosome, P30260;Q9UJX3. As to the kind of experiment: co-immunoprecipitation (anti-Cdc27 IP), quantified Western blot. The conditions noted are these: mitotic Flp-In T-REx cell lines; mean of two independent experiments; parent: 1.0; read off a plot.
A further assay has as its target T1, H6-Bub1^1–409/Bub3 (human | , UniProt O43683 1-409; O43684 1-328).
T1 construct: Bub3, co-expressed, untagged or as Bub3-TRX; source: insect cells, co-infection and co-expression, purified (HisTrap, S200 SEC); not shown: H6, N-terminal, kept
As to the kind of experiment: SEC; mobility shift; proteins at 15 µM, 1 hr at 20–22°C in 50 mM Tris–HCl pH 8, 150 mM KCl, 1.5 mM TCEP, 0.05% Tween20; Superose6 10/300; SDS-PAGE of fractions. The conditions noted are these: both partners purified.

The target in a further assay is T2, H6-Bub1^209–409-MBP/Bub3 (human | , UniProt O43683 209-409; O43684 1-328).
T2 construct: Bub3, untagged, co-expressed; source: insect cells, co-expressed, purified (TALON, SEC); not shown: H6, N-terminal, kept; MBP, C-terminal, kept
Described as above. The conditions noted are these: both partners purified.

Chain of Mad2 (Q13257 whole entry): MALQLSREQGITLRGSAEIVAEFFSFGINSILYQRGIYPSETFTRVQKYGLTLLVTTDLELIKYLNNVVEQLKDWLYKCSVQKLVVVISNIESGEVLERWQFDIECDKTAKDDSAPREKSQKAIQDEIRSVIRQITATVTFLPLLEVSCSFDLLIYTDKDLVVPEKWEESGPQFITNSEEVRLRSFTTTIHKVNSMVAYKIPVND
Chain of Bub3 (O43684 whole entry): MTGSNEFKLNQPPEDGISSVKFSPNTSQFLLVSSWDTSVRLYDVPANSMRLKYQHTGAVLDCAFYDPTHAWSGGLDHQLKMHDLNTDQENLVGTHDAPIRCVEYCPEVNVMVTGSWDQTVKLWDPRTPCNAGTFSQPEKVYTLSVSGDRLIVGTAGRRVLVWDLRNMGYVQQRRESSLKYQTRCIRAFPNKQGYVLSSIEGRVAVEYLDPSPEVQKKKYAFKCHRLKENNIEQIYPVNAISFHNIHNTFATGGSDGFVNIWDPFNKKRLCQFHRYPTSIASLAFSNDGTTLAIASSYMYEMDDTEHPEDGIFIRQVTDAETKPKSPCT
Chain of Cdc20 (Q12834 whole entry): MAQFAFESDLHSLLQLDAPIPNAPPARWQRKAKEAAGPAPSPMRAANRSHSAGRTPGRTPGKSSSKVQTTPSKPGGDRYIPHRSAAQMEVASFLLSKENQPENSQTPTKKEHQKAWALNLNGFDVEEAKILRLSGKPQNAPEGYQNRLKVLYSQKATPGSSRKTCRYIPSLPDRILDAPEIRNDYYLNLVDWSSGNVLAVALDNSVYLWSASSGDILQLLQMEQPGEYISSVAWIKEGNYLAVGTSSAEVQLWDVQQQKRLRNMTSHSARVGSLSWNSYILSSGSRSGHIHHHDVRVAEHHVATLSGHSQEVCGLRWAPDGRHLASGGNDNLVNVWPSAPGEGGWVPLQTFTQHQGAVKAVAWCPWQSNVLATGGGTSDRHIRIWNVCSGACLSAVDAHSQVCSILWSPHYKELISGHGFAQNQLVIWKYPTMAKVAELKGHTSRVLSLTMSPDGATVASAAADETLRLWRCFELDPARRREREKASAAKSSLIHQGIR
T2 sequence (O43683 209-409, chain 1 of 2): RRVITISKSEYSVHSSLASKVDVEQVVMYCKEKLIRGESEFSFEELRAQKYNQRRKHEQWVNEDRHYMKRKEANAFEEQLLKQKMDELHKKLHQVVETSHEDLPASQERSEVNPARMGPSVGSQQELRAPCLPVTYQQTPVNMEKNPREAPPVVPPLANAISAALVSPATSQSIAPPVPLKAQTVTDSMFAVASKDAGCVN
T2 sequence (O43684 whole entry, chain 2 of 2): as the sequence (O43684 whole entry) above
T1 sequence (O43683 1-409, chain 1 of 2): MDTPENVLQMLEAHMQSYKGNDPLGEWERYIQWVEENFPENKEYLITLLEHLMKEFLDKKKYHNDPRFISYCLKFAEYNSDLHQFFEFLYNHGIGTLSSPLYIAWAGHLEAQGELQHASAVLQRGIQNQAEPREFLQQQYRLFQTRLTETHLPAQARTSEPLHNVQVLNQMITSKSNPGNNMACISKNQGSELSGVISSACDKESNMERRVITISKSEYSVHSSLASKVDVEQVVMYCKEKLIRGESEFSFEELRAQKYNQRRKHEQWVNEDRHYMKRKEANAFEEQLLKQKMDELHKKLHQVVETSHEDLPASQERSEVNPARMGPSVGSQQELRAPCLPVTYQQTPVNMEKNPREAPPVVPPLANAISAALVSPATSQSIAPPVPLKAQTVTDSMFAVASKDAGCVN
T1 sequence (O43684 whole entry, chain 2 of 2): as the sequence (O43684 whole entry) above

With “GFP-BubR1 wild type, full length (from UniProt O60566) B1-loop”, the ratio to parent in the assay with Apc7 was found to be 0.08; with Bub3 it was 1.1; with Cdc20 it was 0.12; in the assay with Cdc27 it was 0.06; with Mad2, 0.12; in assay [1], 0.15.

B1: H6-TRX-BubR1^362–571 (domain or fragment, human, UniProt O60566 362-571, looked up)
chain: INHILSTRKPGKEEGDPLQRVQSHQQASEEKKEKMMYCKEKIYAGVGEFSFEEIRAEVFRKKLKEQREAELLTSAEKRAEMQKQIEEMEKKLKEIQTTQQERTGDQQEETMPTKETTKLQIASESQKIPGMTLSSSVCQVNCCARETSLAENIWQEQPHSKGPSVPFSIFDEFLLSEKKNKSPPADPPRVLAQRRPLAVLKTSESITSNE
notes: source: insect cells, baculovirus, purified (TALON, SEC)
In the case of B1, the binding result in the assay with H6-Bub1^1–409/Bub3 and in the assay with H6-Bub1^209–409-MBP/Bub3 was “binds” each time.
